Assay results reported in US20170342160A1 (CHIOME BIOSCIENCE, published 2017).

T1: recombinant extracellular domain of human 5T4 (soluble, produced in house) (human, UniProt Q13641 32-355)
T1 construct: extracellular domain; The signal peptide lies within residues 1-355 and is not part of the secreted protein; also called 5T4-ECD; 5T4 recombinant protein
T1 sequence: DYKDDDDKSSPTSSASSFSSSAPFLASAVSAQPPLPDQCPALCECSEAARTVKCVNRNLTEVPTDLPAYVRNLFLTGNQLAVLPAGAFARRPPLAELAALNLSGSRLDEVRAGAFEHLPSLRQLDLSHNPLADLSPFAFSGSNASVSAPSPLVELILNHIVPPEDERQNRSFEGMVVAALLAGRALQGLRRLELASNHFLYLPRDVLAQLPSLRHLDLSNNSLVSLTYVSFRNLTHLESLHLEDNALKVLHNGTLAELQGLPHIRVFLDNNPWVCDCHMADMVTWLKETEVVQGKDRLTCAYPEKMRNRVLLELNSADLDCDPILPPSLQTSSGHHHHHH

T2: human 5T4 on 5T4-positive tumour cells (MSTO-211H mesothelioma cell line and other tumour cell lines) (human, UniProt Q13641 32-420)
T2 sequence (looked up): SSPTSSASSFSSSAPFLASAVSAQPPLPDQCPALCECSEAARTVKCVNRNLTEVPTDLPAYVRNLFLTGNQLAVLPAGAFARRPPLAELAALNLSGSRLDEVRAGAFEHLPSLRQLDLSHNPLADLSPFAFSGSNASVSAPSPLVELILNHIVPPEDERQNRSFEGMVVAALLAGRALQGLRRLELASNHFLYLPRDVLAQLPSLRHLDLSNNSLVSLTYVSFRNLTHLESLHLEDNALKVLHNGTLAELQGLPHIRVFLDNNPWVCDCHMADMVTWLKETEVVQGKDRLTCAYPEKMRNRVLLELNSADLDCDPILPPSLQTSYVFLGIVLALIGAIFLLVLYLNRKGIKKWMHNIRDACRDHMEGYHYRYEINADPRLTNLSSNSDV

B1: Fab(5T4), humanized VH(5T4) SEQ ID 6 and VL(5T4) SEQ ID 19 in Fab format (Fab, V domains shown)
VH: QVQLVQSGAEVKKPGASVKVSCKASGYSFTSYYMHWVKQSPGQGLEWIGRINPNNGVTLYNQKFKDRVTMTRDTSISTAYMELSRLRSDDTAVYYCARSTMITNYVMDYWGQGTLVTVSS
VL: DIVMTQSPDSLAVSLGERATINCKASQSVSNDVAWYQQKPGQPPKLLIYYTSSRYAGVPDRFSGSGSGTDFTLTISSLQAEDVAVYYCQQDYNSPPTFGGGTKLEIK
notes: Fab format
B2: BiTE format, scFv(5T4)-scFv(CD3) fusion with humanized VH(5T4) SEQ ID 6 and VL(5T4) SEQ ID 19 (bispecific antibody, V domains shown)
VH: B1 VH
VL: B1 VL
notes: The molecule is a single polypeptide, scFv(5T4)-scFv(CD3); also called scFv-scFv format
B3: IgG(5T4), humanized VH(5T4) SEQ ID 6 and VL(5T4) SEQ ID 19 in IgG format (antibody, V domains shown)
VH: B1 VH
VL: B1 VL
notes: also called IgG1(5T4)
B4: Tb535H, humanized 5T4xCD3 Tribody fusion protein (Fab(5T4) with C-terminal dsFv(CD3) and dsFv(5T4)) (bispecific antibody)
chain 1: QVQLVQSGAEVKKPGASVKVSCKASGYSFTSYYMHWVKQSPGQGLEWIGRINPNNGVTLYNQKFKDRVTMTRDTSISTAYMELSRLRSDDTAVYYCARSTMITNYVMDYWGQGTLVTVSSASTKGPSVFPLAPSSKSTSGGTAALGCLVKDYFPEPVTVSWNSGALTSGVHTFPAVLQSSGLYSLSSVVTVPSSSLGTQTYICNVNHKPSNTKVDKKVEPKSCDKTHTGPGGGSPGQVQLVQSGAELKKPGASVKVSCKASGYTFTRYTMHWVRQAPGQCLEWMGYINPSRGYTNYNQKFKDKATLTADKSTSTAYMELRSLRSDDTAVYYCARYYDDHYSLDYWGQGTLVTVSSASGGGGSGGGGSGGGGSAGDIQLTQSPSILSASVGDRVTITCRASSSVSYMNWYQQKPGKAPKRWIYDTSKVASGVPYRFSGSGSGTEYTLTISSMQPEDFATYYCQQWSSNPLTFGCGTKVEIKSG
chain 2: not shown
notes: also called Tb535H-1120; Tb-5T4
B5: Tb535C, chimeric 5T4xCD3 Tribody fusion protein based on murine 5T4 binders (bispecific antibody)
chain 1: EVQLQQSGPDLVKPGASVKISCKASGYSFTGYYMHWVKQSPGKGLEWIGRINPNNGVTLYNQKFKDKATLTVDKSSTTAYMELRSLTSEDSAVYYCARSTMITNYVMDYWGQGTSVTVSSASTKGPSVFPLAPSSKSTSGGTAALGCLVKDYFPEPVTVSWNSGALTSGVHTFPAVLQSSGLYSLSSVVTVPSSSLGTQTYICNVNHKPSNTKVDKKVEPKSCDKTHTGPGGGSPGQVQLVQSGAELKKPGASVKVSCKASGYTFTRYTMHWVRQAPGQCLEWMGYINPSRGYTNYNQKFKDKATLTADKSTSTAYMELRSLRSDDTAVYYCARYYDDHYSLDYWGQGTLVTVSSASGGGGSGGGGSGGGGSAGDIQLTQSPSILSASVGDRVTITCRASSSVSYMNWYQQKPGKAPKRWIYDTSKVASGVPYRFSGSGSGTEYTLTISSMQPEDFATYYCQQWSSNPLTFGCGTKVEIK
chain 2: SIVMTQTPTSLLVSAGDRVTITCKASQSVSNDVAWYQQKPGQSPKLLISYTSSRYAGVPDRFSGSGYGTDFTLTISSVQAEDAAVYFCQQDYNSPPTFGGGTKLEIKRTVAAPSVFIFPPSDEQLKSGTASVVCLLNNFYPREAKVQWKVDNALQSGNSQESVTEQDSKDSTYSLSSTLTLSKADYEKHKVYACEVTHQGLSSPVTKSFNRGECGPGGGSPGEVQLVQSGPDDVKPGGSVKISCKASGYSFTGYYMHWVKQSPGKCLEWIGRINPNNGVTLYNQKFKDKATLTVDKSSTTAYMELRSLTSEDSAVYYCARSTMITNYVMDYWGQGTLVTVSSASGGGGSGGGGSGGGGSAGDIVMTQTPTSLLVSAGDRVTITCKASQSVSNDVAWYQQKPGQSPKLLISYTSSRYAGVPDRFSGSGYGTDFTLTISSVQAEDAAVYFCQQDYNSPPTFGCGTKLEIKSG
notes: Heterodimer through CH1:CL; also called Tribody based on the murine variable domains
B6: dsFv(5T4), humanized VH(5T4) SEQ ID 6 and VL(5T4) SEQ ID 19 in dsFv format (scFv)
scFv: QVQLVQSGAEVKKPGASVKVSCKASGYSFTSYYMHWVKQSPGQCLEWIGRINPNNGVTLYNQKFKDRVTMTRDTSISTAYMELSRLRSDDTAVYYCARSTMITNYVMDYWGQGTLVTVSSASGGGGSGGGGSGGGGSAGDIVMTQSPDSLAVSLGERATINCKASQSVSNDVAWYQQKPGQPPKLLIYYTSSRYAGVPDRFSGSGSGTDFTLTISSLQAEDVAVYYCQQDYNSPPTFGCGTKLEIK
notes: also called dsFvhu5T4; scFv

Experiments:
[1] = molecular target: T1, recombinant extracellular domain of …; assay: ELISA on coated 5T4-ECD
Method: (§1) For Affinity to 5T4 target antigen an ELISA with the 5T4 antigen is used. Target antigen, 5T4 extra cellular domain, produced in house is coated to polystyrene flat bottom 96 well microplate and blocked. Tribody/sample dilutions were prepared in TBS with 0.2% w/v powdered milk, added to the plate and incubated. Following wash steps, detection antibody is added to the samples (anti-human Kappa light chain AP; e.g. Sigma, Cat. No. K4377). Bound detection antibody is measured by development of a colorimetric reaction upon addition of p-NPP (Cat-No: N7653, Sigma) and the absorbance quantified on a micro-well plate reader and processed by non-linear regression using graph Pad Prism software.

[2] = molecular target: T1, recombinant extracellular domain of …; assay: ELISA on recombinant 5T4 extracellular domain
Method: as §1

[3] = molecular target: T2, human 5T4 on 5T4-positive tumour cells …; assay: cell-based or functional assay
[4] = molecular target: T2, human 5T4 on 5T4-positive tumour cells …; assay: FACS titration on MSTO-211H cells
Method: (§2) To access the binding of anti-5T4 molecules (scFv, Fab and Tribody format) to the human 5T4 domain, the biphasic mesothelioma cell line MSTO-211H (ATCC CRL-2081) was tested by FACS binding assay with direct labelled molecules with Allophycocyanin (APC) by the Lightning-Link® APC kit from Innova Biosciences, following the manufacturer instructions.
(§3) Cells are then washed twice with PBS and binding to cell surface is accessed by flow cytometry using a BD FACsalibur apparatus.

[5] = molecular target: T1, recombinant extracellular domain of …; assay: ELISA on 5T4 protein (extracellular domain)
Method: as §1

[6] = molecular target: T3, human CD3 (CD3 receptor complex on T cells) on Jurkat cells and on human PBMC (human, UniProt P07766 23-207); assay: cell binding titration (Abs 405nm) on human PBMC, donor PBMC#2053
T3 construct: whole, on cells; The other chains of the complex are not specified; also called human CD3 domain; CD3 epsilon

[7] = molecular target: T3, human CD3 (CD3 receptor complex on T …); assay: cell binding titration (Abs 405nm) on human PBMC, donor PBMC#5886
[8] = molecular target: T3, human CD3 (CD3 receptor complex on T …); assay: row 'CD3 binding (KD)'; cellular ELISA on Jurkat T-cells (panel B)
Method: For Affinity to the human CD3 domain, a cell based ELISA with a T-cell lymphoma (CD3+) cell line, Jurkat, was used. Jurkat cells are collected, washed and aliquoted into each well of a round-bottom 96 well microplate. Tribody/sample dilutions were prepared in PBS, added to the cells and incubated. Following wash steps, detection antibody is added to the samples (anti-human Kappa light chain AP; e.g. Sigma, Cat. No. K4377). Bound detection antibody is measured by development of a colorimetric reaction upon addition of p-NPP (Cat-No: N7653, Sigma) and the absorbance quantified on a micro-well plate reader and processed by non-linear regression using graph Pad Prism software.

[9] = molecular target: T1, recombinant extracellular domain of …; assay: row '5T4-binding (KD)'; ELISA on 5T4 extracellular domain (panel A)
Method: as §1

[10] = molecular target: T3, human CD3 (CD3 receptor complex on T …); assay: cell binding titration (Abs 405nm) on human PBMC, donor printed as PBMC49966
[11] = molecular target: T2, human 5T4 on 5T4-positive tumour cells …; assay: FACS titration on MSTO-211H cells (row 'FACS' of the inset table 'Method / KD Tb535H (nM)')
Method: as §2, §3

[12] = molecular target: T3, human CD3 (CD3 receptor complex on T …); assay: flow cytometry titration on peripheral blood cells of 3 different donors; peripheral blood cells of 3 different donors; cell-binding titration, KD = 50% binding concentration

T3 sequence (P07766 23-207, one chain of several): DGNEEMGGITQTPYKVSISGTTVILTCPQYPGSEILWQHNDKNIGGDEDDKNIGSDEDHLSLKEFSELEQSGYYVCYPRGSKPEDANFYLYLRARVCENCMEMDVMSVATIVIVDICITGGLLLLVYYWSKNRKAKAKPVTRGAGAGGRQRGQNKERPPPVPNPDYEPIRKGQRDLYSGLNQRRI

Binder	Kd [1] [nM]	EC50 (read off the curve) [2] [nM]	EC50 of cytotoxicity (MSTO-211H target cells with human PBMC) [3] [nM]	EC50 (read off the curve) [5] [nM]	Kd [8] [nM]	Kd [9] [nM]	further results
B1	2.9	~2	–	–	–	–	–
B2	2	–	–	–	–	–	–
B3	0.7	–	–	–	–	–	–
B4	0.9	~1	0.007	~1	23	1.1	EC50 (read off the curve) [4]: ~5 nM; Kd [6]: 26 nM; Kd [7]: 24 nM; Kd [10]: 26 nM; Kd [11]: 4.6 nM; Kd [12]: ~25 nM
B5	1	–	0.01	~0.7	30	0.8	–
B6	2.3	~1	–	–	–	–	–
